Series [1] has as its system E. coli (EPSPS gene-and-C-P lyase genes-deleted strain). Kind of series: glyphosate resistance testing of Glycine max EPSPS mutant gene: growth of transformed E. coli on culture media containing glyphosate. It counts as cell-based. Also on record: key: saturation index=0, no growth; saturation index=1, minor growth; saturation index=2, growth to half-saturation; saturation index=3, vigorous growth, but still not saturated; saturation index=4, rapid growth, meaning the strains have reached the maximum (saturation) concentration or the growth has reached the limit. Conditions: E. coli transformed with the gene. How it is done:
(§1) For glyphosate resistance testing of Oryza sativa EPSPS mutant gene, E. coli (EPSPS gene-and-C-P lyase genes-deleted strain) respectively transformed with OsEM gene (experimental group) and OsE gene (control group) were inoculated to culture media containing 0 mM, 1 mM, 5 mM, 10 mM, 20 mM, 50 mM and 100 mM glyphosate to see the growth of E. coli (indicated by growth saturation index: saturation index=0, no growth; saturation index=1, minor growth; saturation index=2, growth to half-saturation; saturation index=3, vigorous growth, but still not saturated; saturation index=4, rapid growth, meaning the strains have reached the maximum (saturation) concentration or the growth has reached the limit).
For glyphosate resistance testing of Glycine max EPSPS mutant gene, E. coli (EPSPS gene-and-C-P lyase genes-deleted strain) respectively transformed with GmEM gene (experimental group) and GmE gene (control group) were inoculated to culture media containing 0 mM, 1 mM, 5 mM, 10 mM, 20 mM, 50 mM and 100 mM glyphosate to see the growth of E. coli.

The test system is the same in series [2]. Kind of series: glyphosate resistance testing of Oryza sativa EPSPS mutant gene: growth of transformed E. coli on culture media containing glyphosate. It counts as cell-based. Also on record: key: saturation index=0, no growth; saturation index=1, minor growth; saturation index=2, growth to half-saturation; saturation index=3, vigorous growth, but still not saturated; saturation index=4, rapid growth, meaning the strains have reached the maximum (saturation) concentration or the growth has reached the limit. Conditions: E. coli transformed with the gene. How it is done: A plurality of the above obtained mutant strains were inoculated on a plurality of screening culture media with different concentrations of glyphosate, respectively (the screening culture media contained different concentrations of glyphosate, and the glyphosate concentrations contained in them were 10 mM, 20 mM, 50 mM, etc., respectively, having a gradient in glyphosate concentrations, and of course, the glyphosate concentration may be set as required), and cultured at 37° C. overnight. The screening culture media were obtained by using M9 as a basal medium, to which certain concentrations of antibiotics, including Specs (Spectinomycin), Gen (Gentamycin) and Amp (Ampicillin), and different concentrations of glyphosate were added. M9 culture medium consists of the following ingredients: 13˜14 g/L of Na2HPO4, 5.7˜6.3 g/L of KH2PO4, 0.9˜1.1 g/L of NaCl, 1.8˜2.2 g/L of NH4Cl, 37˜43 g/L of glucose, 48˜52 g/L of MgSO4.7H2O and 21˜23 g/L of CaCl2.
as §1

Where [3] appears, read: culture medium with 0 mM glyphosate.
Setting [4] is: culture medium with 1 mM glyphosate.
The mark [5] stands for this setting: culture medium with 5 mM glyphosate.
[6] abbreviates: culture medium with 10 mM glyphosate.
The mark [7] stands for this setting: culture medium with 20 mM glyphosate.
[8] abbreviates: culture medium with 50 mM glyphosate.
[9] abbreviates: culture medium with 100 mM glyphosate.

“And” between values parts separate entries of the source, which are not always exact repeats. Identical values can stand only once.

B1: GmE: wild type Glycine max EPSPS gene, SEQ ID NO.5; control group (nucleic acid)
DNA: ATGGATAGCGTGGCGGCGGCGGAAAAACCGAGCACCAGCCCGGAAATTGTGCTGGAACCGATTAAAGATTTTAGCGGCACCATTACCCTGCCGGGCAGCAAAAGCCTGAGCAACCGCATTCTGCTGCTGGCGGCGCTGAGCGAAGGCACCACCGTGGTGGATAACCTGCTGTATAGCGAAGATATTCATTATATGCTGGGCGCGCTGCGCACCCTGGGCCTGCGCGTGGAAGATGATAAAACCACCAAACAGGCGATTGTGGAAGGCTGCGGCGGCCTGTTTCCGACCAGCAAAGAAAGCAAAGATGAAATTAACCTGTTTCTGGGCAACGCGGCGACCGCGATGCGCAGCCTGACCGCGGCGGTGGTGGCGGCGGGCGGCAACGCGAGCTATGTGCTGGATGGCGTGCCGCGCATGCGCGAACGCCCGATTGGCGATCTGGTGGCGGGCCTGAAACAGCTGGGCGCGGATGTGGATTGCTTTCTGGGCACCAACTGCCCGCCGGTGCGCGTGAACGGCAAAGGCGGCCTGCCGGGCGGCAAAGTGAAACTGAGCGGCAGCGTGAGCAGCCAGTATCTGACCGCGCTGCTGATGGCGGCGCCGCTGGCGCTGGGCGATGTGGAAATTGAAATTGTGGATAAACTGATTAGCGTGCCGTATGTGGAAATGACCCTGAAACTGATGGAACGCTTTGGCGTGAGCGTGGAACATAGCGGCAACTGGGATCGCTTTCTGGTGCATGGCGGCCAGAAATATAAAAGCCCGGGCAACGCGTTTGTGGAAGGCGATGCGAGCAGCGCGAGCTATCTGCTGGCGGGCGCGGCGATTACCGGCGGCACCATTACCGTGAACGGCTGCGGCACCAGCAGCCTGCAGGGCGATGTGAAATTTGCGGAAGTGCTGGAAAAAATGGGCGCGAAAGTGACCTGGAGCGAAAACAGCGTGACCGTGAGCGGCCCGCCGCGCGATTTTAGCGGCCGCAAAGTGCTGCGCGGCATTGATGTGAACATGAACAAAATGCCGGATGTGGCGATGACCCTGGCGGTGGTGGCGCTGTTTGCGAACGGCCCGACCGCGATTCGCGATGTGGCGAGCTGGCGCGTGAAAGAAACCGAACGCATGATTGCGATTTGCACCGAACTGCGCAAACTGGGCGCGACCGTGGAAGAAGGCCCGGATTATTGCGTGATTACCCCGCCGGAAAAACTGAACGTGACCGCGATTGATACCTATGATGATCATCGCATGGCGATGGCGTTTAGCCTGGCGGCGTGCGGCGATGTGCCGGTGACCATTAAAGATCCGGGCTGCACCCGCAAAACCTTTCCGGATTATTTTGAAGTGCTGGAACGCCTGACCAAACATTAA
modifications: Glycine max
notes: control group
Regarding B1, the Growth saturation index was 4 in series [1] (setting [3]); “cannot grow normally and 0” in series [1] (setting [4]); “cannot grow normally and 0” in series [1] (setting [5]); “cannot grow normally and 0” in series [1] (setting [6]); “cannot grow normally and 0” in series [1] (setting [7]); “cannot grow normally and 0” in series [1] (setting [8]). Further, the Growth saturation index in series [1] (setting [9]) is listed as 0.

B2: OsE: wild type Oryza sativa EPSPS gene, SEQ ID NO.1; control group (nucleic acid, listed as Oryza sativa)
DNA: ATGGCGTCCAACGCCGCGGCTGCGGCGGCGAAGGCGGAGGAGATCGTGCTCCAGCCCATCAGGGAGATCTCCGGGGCGGTTCAGCTGCCAGGGTCCAAGTCGCTCTCCAACAGGATCCTCCTCCTCTCCGCCCTCTCCGAGGGCACAACAGTGGTGGACAACTTGCTGAACAGTGAGGATGTTCACTACATGCTTGAGGCCCTGAAAGCCCTCGGGCTCTCTGTGGAAGCAGATAAAGTTGCAAAAAGAGCTGTAGTCGTTGGCTGTGGTGGCAAGTTTCCTGTTGAGAAGGATGCGAAAGAGGAAGTGCAACTCTTCTTGGGGAACGCTGCGACTGCAATGCGACTCTTGACAGCAGCCGTGACTGCTGCTGGTGGAAATGCAACTTATGTGCTTGATGGAGTGCCACGAATGAGGGAGAGACCGATTGGTGACTTGGTTGTCGGGTTGAAACAACTTGGTGCGGATGTCGACTGTTTCCTTGGCACTGAATGCCCACCTGTTCGTGTCAAGGGAATTGGAGGACTTCCTGGTGGCAAGGTTAAGCTCTCTGGTTCCATCAGCAGTCAGTACTTGAGTGCCTTGCTGATGGCTGCTCCTTTGGCCCTTGGGGATGTGGAGATCGAAATCATTGACAAACTAATCTCCATTCCTTACGTTGAAATGACATTGAGATTGATGGAGCGTTTTGGTGTGAAGGCAGAGCATTCTGATAGTTGGGACAGATTCTATATTAAGGGAGGGCAGAAGTACAAATCTCCTGGAAATGCCTATGTTGAAGGTGATGCCTCAAGCGCGAGCTATTTCTTGGCTGGTGCTGCAATCACTGGAGGCACTGTGACAGTTCAAGGTTGTGGTACGACCAGTTTGCAGGGTGATGTCAAATTTGCTGAGGTACTTGAGATGATGGGAGCAAAGGTTACATGGACTGACACCAGTGTAACCGTAACTGGTCCACCACGTGAGCCTTATGGGAAGAAACACCTGAAAGCTGTTGATGTCAACATGAACAAAATGCCTGATGTTGCCATGACCCTTGCCGTTGTTGCACTCTTCGCTGATGGTCCAACTGCTATCAGAGATGTGGCTTCCTGGAGAGTAAAGGAAACCGAAAGGATGGTTGCAATTCGGACCGAGCTAACAAAGCTGGGAGCATCGGTTGAAGAAGGTCCTGACTACTGCATCATCACCCCACCGGAGAAGCTGAACATCACGGCAATCGACACCTACGATGATCACAGGATGGCCATGGCCTTCTCCCTCGCTGCCTGCGCCGACGTGCCCGTGACGATCAGGGACCCTGGTTGCACCCGCAAGACCTTCCCCAACTACTTCGACGTTCTAAGCACTTTCGTCAGGAACTGA
For B2, the Growth saturation index in series [2] (setting [3]) is recorded as 4; in series [2] (setting [4]), 0; in series [2] (setting [5]), 0; in series [2] (setting [6]) it was 0; in series [2] (setting [7]), 0; in series [2] (setting [8]) it was 0. The same molecule showed a Growth saturation index in series [2] (setting [9]) of 0.

(Values after patent US10961546B2, “Glyphosate-resistant gene screening method, EPSPS mutant gene and deficient strain and use” (GEVOTO LLC, priority 2016, dated 2021).)
